# Test results as given in patent publication US20160024487.
# Key:
# [1] = system: T1, Lys(Dnp)-ATNATX4X3PRIVGG-Lys(Abz), X4 = D, X3 = Y
# T1 sequence: KATNATDYPRIVGGK
# [2] = system: T2, Lys(Dnp)-ATNATX4X3PRIVGG-Lys(Abz), X4 = E, X3 = F
# T2 sequence: KATNATEFPRIVGGK
# [3] = system: T3, Lys(Dnp)-ATNATX4X3PRIVGG-Lys(Abz), X4 = E, X3 = T
# T3 sequence: KATNATETPRIVGGK
# [4] = system: T4, Lys(Dnp)-ATNATX4X3PRIVGG-Lys(Abz), X4 = F, X3 = D
# T4 sequence: KATNATFDPRIVGGK
# [5] = system: T5, Lys(Dnp)-ATNATX4X3PRIVGG-Lys(Abz), X4 = G, X3 = F
# T5 sequence: KATNATGFPRIVGGK
# [6] = system: T6, Lys(Dnp)-ATNATX4X3PRIVGG-Lys(Abz), X4 = G, X3 = I
# T6 sequence: KATNATGIPRIVGGK
# [7] = system: T7, Lys(Dnp)-ATNATX4X3PRIVGG-Lys(Abz), X4 = G, X3 = V
# T7 sequence: KATNATGVPRIVGGK
# [8] = system: T8, Lys(Dnp)-ATNATX4X3PRIVGG-Lys(Abz), X4 = G, X3 = Y
# T8 sequence: KATNATGYPRIVGGK
# [9] = system: T9, Lys(Dnp)-ATNATX4X3PRIVGG-Lys(Abz), X4 = H, X3 = A
# T9 sequence: KATNATHAPRIVGGK
# [10] = system: T10, Lys(Dnp)-ATNATX4X3PRIVGG-Lys(Abz), X4 = H, X3 = F
# T10 sequence: KATNATHFPRIVGGK
# [11] = system: T11, Lys(Dnp)-ATNATX4X3PRIVGG-Lys(Abz), X4 = H, X3 = G
# T11 sequence: KATNATHGPRIVGGK
# [12] = system: T12, Lys(Dnp)-ATNATX4X3PRIVGG-Lys(Abz), X4 = H, X3 = K
# T12 sequence: KATNATHKPRIVGGK
# [13] = system: T13, Lys(Dnp)-ATNATX4X3PRIVGG-Lys(Abz), X4 = H, X3 = Q
# T13 sequence: KATNATHQPRIVGGK
# [14] = system: T14, Lys(Dnp)-ATNATX4X3PRIVGG-Lys(Abz), X4 = K, X3 = D
# T14 sequence: KATNATKDPRIVGGK
# [15] = system: T15, Lys(Dnp)-ATNATX4X3PRIVGG-Lys(Abz), X4 = M, X3 = E
# T15 sequence: KATNATMEPRIVGGK
# [16] = system: T16, Lys(Dnp)-ATNATX4X3PRIVGG-Lys(Abz), X4 = N, X3 = F
# T16 sequence: KATNATNFPRIVGGK
# [17] = system: T17, Lys(Dnp)-ATNATX4X3PRIVGG-Lys(Abz), X4 = N, X3 = G
# T17 sequence: KATNATNGPRIVGGK
# [18] = system: T18, Lys(Dnp)-ATNATX4X3PRIVGG-Lys(Abz), X4 = N, X3 = H
# T18 sequence: KATNATNHPRIVGGK
# [19] = system: T19, Lys(Dnp)-ATNATX4X3PRIVGG-Lys(Abz), X4 = N, X3 = S
# T19 sequence: KATNATNSPRIVGGK
# [20] = system: T20, Lys(Dnp)-ATNATX4X3PRIVGG-Lys(Abz), X4 = P, X3 = N
# T20 sequence: KATNATPNPRIVGGK
# [21] = system: T21, Lys(Dnp)-ATNATX4X3PRIVGG-Lys(Abz), X4 = P, X3 = P
# T21 sequence: KATNATPPPRIVGGK
# [22] = system: T22, Lys(Dnp)-ATNATX4X3PRIVGG-Lys(Abz), X4 = Q, X3 = M
# T22 sequence: KATNATQMPRIVGGK
# [23] = system: T23, Lys(Dnp)-ATNATX4X3PRIVGG-Lys(Abz), X4 = Q, X3 = T
# T23 sequence: KATNATQTPRIVGGK
# [24] = system: T24, Lys(Dnp)-ATNATX4X3PRIVGG-Lys(Abz), X4 = Q, X3 = V
# T24 sequence: KATNATQVPRIVGGK
# [25] = system: T25, Lys(Dnp)-ATNATX4X3PRIVGG-Lys(Abz), X4 = S, X3 = D
# T25 sequence: KATNATSDPRIVGGK
# [26] = system: T26, Lys(Dnp)-ATNATX4X3PRIVGG-Lys(Abz), X4 = S, X3 = G
# T26 sequence: KATNATSGPRIVGGK
# [27] = system: T27, Lys(Dnp)-ATNATX4X3PRIVGG-Lys(Abz), X4 = S, X3 = H
# T27 sequence: KATNATSHPRIVGGK
# [28] = system: T28, Lys(Dnp)-ATNATX4X3PRIVGG-Lys(Abz), X4 = S, X3 = P
# T28 sequence: KATNATSPPRIVGGK
# [29] = system: T29, Lys(Dnp)-ATNATX4X3PRIVGG-Lys(Abz), X4 = S, X3 = Q
# T29 sequence: KATNATSQPRIVGGK
# [30] = system: T30, Lys(Dnp)-ATNATX4X3PRIVGG-Lys(Abz), X4 = S, X3 = R
# T30 sequence: KATNATSRPRIVGGK
# [31] = system: T31, Lys(Dnp)-ATNATX4X3PRIVGG-Lys(Abz), X4 = S, X3 = T
# T31 sequence: KATNATSTPRIVGGK
# [32] = system: T32, Lys(Dnp)-ATNATX4X3PRIVGG-Lys(Abz), X4 = S, X3 = V
# T32 sequence: KATNATSVPRIVGGK
# [33] = system: T33, Lys(Dnp)-ATNATX4X3PRIVGG-Lys(Abz), X4 = T, X3 = E
# T33 sequence: KATNATTEPRIVGGK
# [34] = system: T34, Lys(Dnp)-ATNATX4X3PRIVGG-Lys(Abz), X4 = T, X3 = F
# T34 sequence: KATNATTFPRIVGGK
# [35] = system: T35, Lys(Dnp)-ATNATX4X3PRIVGG-Lys(Abz), X4 = T, X3 = I
# T35 sequence: KATNATTIPRIVGGK
# [36] = system: T36, Lys(Dnp)-ATNATX4X3PRIVGG-Lys(Abz), X4 = T, X3 = N
# T36 sequence: KATNATTNPRIVGGK
# [37] = system: T37, Lys(Dnp)-ATNATX4X3PRIVGG-Lys(Abz), X4 = W, X3 = I
# T37 sequence: KATNATWIPRIVGGK
# [38] = system: T38, Lys(Dnp)-ATNATX4X3PRIVGG-Lys(Abz), X4 = Y, X3 = D
# T38 sequence: KATNATYDPRIVGGK
# [39] = system: T39, Lys(Dnp)-ATNATX4X3PRIVGG-Lys(Abz), X4 = Y, X3 = E
# T39 sequence: KATNATYEPRIVGGK
substance,measurement,setting,value
Human plasma purified Factor Xa,FXa kcat/KM,[1],11 M⁻¹ s⁻¹
same,FXa kcat/KM,[2],14 M⁻¹ s⁻¹
same,FXa kcat/KM,[3],7.9 M⁻¹ s⁻¹
same,FXa kcat/KM,[4],63 M⁻¹ s⁻¹
same,FXa kcat/KM,[5],35 M⁻¹ s⁻¹
same,FXa kcat/KM,[6],88 M⁻¹ s⁻¹
same,FXa kcat/KM,[7],40 M⁻¹ s⁻¹
same,FXa kcat/KM,[8],34 M⁻¹ s⁻¹
same,FXa kcat/KM,[9],53 M⁻¹ s⁻¹
same,FXa kcat/KM,[10],42 M⁻¹ s⁻¹
same,FXa kcat/KM,[11],47 M⁻¹ s⁻¹
same,FXa kcat/KM,[12],28 M⁻¹ s⁻¹
same,FXa kcat/KM,[13],160 M⁻¹ s⁻¹
same,FXa kcat/KM,[14],45 M⁻¹ s⁻¹
same,FXa kcat/KM,[15],600 M⁻¹ s⁻¹
same,FXa kcat/KM,[16],14 M⁻¹ s⁻¹
same,FXa kcat/KM,[17],9.2 M⁻¹ s⁻¹
same,FXa kcat/KM,[18],15 M⁻¹ s⁻¹
same,FXa kcat/KM,[19],16 M⁻¹ s⁻¹
same,FXa kcat/KM,[20],580 M⁻¹ s⁻¹
same,FXa kcat/KM,[21],14 M⁻¹ s⁻¹
same,FXa kcat/KM,[22],2200 M⁻¹ s⁻¹
same,FXa kcat/KM,[23],920 M⁻¹ s⁻¹
same,FXa kcat/KM,[24],430 M⁻¹ s⁻¹
same,FXa kcat/KM,[25],10 M⁻¹ s⁻¹
same,FXa kcat/KM,[26],24 M⁻¹ s⁻¹
same,FXa kcat/KM,[27],24 M⁻¹ s⁻¹
same,FXa kcat/KM,[28],13 M⁻¹ s⁻¹
same,FXa kcat/KM,[29],45 M⁻¹ s⁻¹
same,FXa kcat/KM,[30],130 M⁻¹ s⁻¹
same,FXa kcat/KM,[31],32 M⁻¹ s⁻¹
same,FXa kcat/KM,[32],38 M⁻¹ s⁻¹
same,FXa kcat/KM,[33],15 M⁻¹ s⁻¹
same,FXa kcat/KM,[34],22 M⁻¹ s⁻¹
same,FXa kcat/KM,[35],63 M⁻¹ s⁻¹
same,FXa kcat/KM,[36],13 M⁻¹ s⁻¹
same,FXa kcat/KM,[37],180 M⁻¹ s⁻¹
same,FXa kcat/KM,[38],36 M⁻¹ s⁻¹
same,FXa kcat/KM,[39],54 M⁻¹ s⁻¹
